Reference: paper PMC12499500

Biological target: drosophila GABAB2 subunit, EM construct (residues 24–790) (Drosophila melanogaster) (UniProt Q9BML6)
Sequence (Q9BML6 entry or part of it): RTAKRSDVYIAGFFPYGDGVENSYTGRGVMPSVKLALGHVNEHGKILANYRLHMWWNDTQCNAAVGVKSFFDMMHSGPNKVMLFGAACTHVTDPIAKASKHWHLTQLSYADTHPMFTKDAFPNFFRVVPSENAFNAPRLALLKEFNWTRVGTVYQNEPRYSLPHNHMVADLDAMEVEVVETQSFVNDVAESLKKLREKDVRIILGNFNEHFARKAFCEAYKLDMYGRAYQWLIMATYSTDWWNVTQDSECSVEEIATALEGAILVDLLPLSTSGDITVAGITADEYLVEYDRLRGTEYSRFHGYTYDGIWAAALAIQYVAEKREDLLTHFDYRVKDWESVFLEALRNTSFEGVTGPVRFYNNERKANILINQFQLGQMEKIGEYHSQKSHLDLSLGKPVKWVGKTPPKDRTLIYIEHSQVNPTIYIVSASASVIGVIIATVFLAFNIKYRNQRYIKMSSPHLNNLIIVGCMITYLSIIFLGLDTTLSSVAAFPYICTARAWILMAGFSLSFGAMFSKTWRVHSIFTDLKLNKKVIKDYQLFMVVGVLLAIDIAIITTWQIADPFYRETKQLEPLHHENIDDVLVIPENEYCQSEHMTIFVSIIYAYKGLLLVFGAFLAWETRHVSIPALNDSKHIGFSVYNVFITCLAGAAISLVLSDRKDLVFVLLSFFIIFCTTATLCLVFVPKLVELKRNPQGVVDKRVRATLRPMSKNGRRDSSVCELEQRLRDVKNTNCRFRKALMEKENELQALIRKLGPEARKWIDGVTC

| Substance | basal IP1 accumulation (constitutive activity), HEK293 cells co-transfected with the dGB1 mutant and wild-type dGB2, against the wild-type receptor (% increase in IP1 accumulation) | basal IP1 accumulation (constitutive activity), HEK293 cells co-transfected with the dGB1 mutant and wild-type dGB2, against dGB1^III (% increase in IP1 accumulation) |
| --- | --- | --- |
| dGB1^I (V658L) (from UniProt Q9BML7 1-840) (receptor) | 50 | – |
| dGB1^I-II (V658L, F659L) (from UniProt Q9BML7 1-840) (receptor) | – | 17 |
| dGB1^I-II-III (V658L, F659L, E666A, H566A) (from UniProt Q9BML7 1-840) (receptor) | – | 22 |
| dGB1^II (F659L) (from UniProt Q9BML7 1-840) (receptor) | 66 | – |
| dGB1^III (E666A and H566A) (from UniProt Q9BML7 1-840) (receptor) | 59 | – |
